Data taken from article PMC6237739.

Columns and labels:
rS1-D34 = rS1-D34 (Vibrio vulnificus CMCP6, UniProt A0A3Q0L6Y6); assay: NMR titration
rS1 full-length = rS1 full-length (Vibrio vulnificus CMCP6, UniProt A0A3Q0L6Y6); assay: EMSA
rS1-D5 = rS1-D5 (Vibrio vulnificus CMCP6, UniProt A0A3Q0L6Y6 364-434); assay: EMSA
rS1-D4 = rS1-D4 (Vibrio vulnificus CMCP6, UniProt A0A3Q0L6Y6 277-347); assay: EMSA
rS1-D3 = rS1-D3 (Vibrio vulnificus CMCP6, UniProt A0A3Q0L6Y6 192-260); assay: EMSA
rS1-D45 = rS1-D45 (Vibrio vulnificus CMCP6, UniProt A0A3Q0L6Y6); assay: EMSA

B1: Asw-10 (ssRNA)
RNA: ACUCAUGAAU
Kd (rS1-D34): 57 ± 6 µM

B2: add Asw full-length (112 nt) (structured_RNA)
RNA: GCUUCAUAUAAUCCUAAUGAUAUGGUUUGGGAGUUUCUACCAAGAGCCUUAAACUCUUGAUUAUGAAGUCUGUCGCUUUAUCCGAAAUUUUAUAAAGAGAAGACUCAUGAAU
Kd (rS1 full-length): 3 ± 1 µM | binding result (rS1-D5): no binding | binding result (rS1-D4): no binding | binding result (rS1-D3): no binding | binding result (rS1-D45): no binding

B3: Asw-8 (ssRNA)
RNA: UCAUGAAU
Kd (rS1-D34): 197 ± 50 µM
